Results on one molecule are retold here after patent US20110005523A1, “Pharmaceutical Polypeptide Dry Powder Aerosol Formulation and Method of Preparation” (published 2011).

The target in assay [1] is T1, IL-4 receptor (Homo sapiens (Human), UniProt P24394). In words: cell-based or functional assay.
Assay [2] addresses T1, IL-4 receptor. The experiment in a line: cell-based or functional assay. The source holds these as a separate data set.

“And” between values parts separate entries of the source, which are not always exact repeats. Identical values can stand only once.

B1: human interleukin-4 mutein met-R121D/Y124D (ligand)
chain: MHKCDITLQEIIKTLNSLTEQKTLCTELTVTDIFAASKNTTEKETFCRAATVLRQFYSHHEKDTRCLGATAQQFHRHKQLIRFLKRLDRNLWGLAGLNSCPVKEANQSTLENFLERLKTIMDEKDSKCSS
As to B1, in the assay with IL-4 receptor [1], the “Mean EC50, nM (TF1 bioassay; 1-Spray Dry Powder)” value came to 0.496 nM; the “Mean EC50, nM (TF1 bioassay; 2-Spray Dry Powder)” value was found to be 0.518 nM; the “Mean EC50, nM (TF1 bioassay; 3-Spray Dry Powder)” value was 0.577 nM; the “Mean EC50, nM (TF1 bioassay; 4-Spray Dry Powder)” value was determined as 0.555 nM. The “Mean EC50, nM (TF1 bioassay; mIL-4 Standard)” value with IL-4 receptor [1] came out at 0.524 nM. For the same molecule, in the assay with IL-4 receptor [2], the “Functionality by Bioassay (specific activity), EC 50 (nM); stability batch, 1 month (5° C.)” value was 0.178 nM and 0.138 nM; the “Functionality by Bioassay (specific activity), EC 50 (nM); stability batch, 1 month (30° C./65%)” value is 0.191 nM and 0.184 nM; the “Functionality by Bioassay (specific activity), EC 50 (nM); stability batch, 3 month (5° C.)” value was determined as 0.302 nM; the “Functionality by Bioassay (specific activity), EC 50 (nM); stability batch, 3 month (30° C./65%)” value was determined as 0.3 nM. Besides, in the assay with IL-4 receptor [2], the “Functionality by Bioassay (specific activity), EC 50 (nM); stability batch, T0” value is 0.246 nM and 0.263 nM; the “Functionality by Bioassay, Standard EC 50 (nM); reference standard” value is 0.264 nM and 0.194 nM and 0.305 nM.
